Assay results from the Human Domainome abundance scans (Beltran et al. 2025).
± gives the uncertainty stated by the source.

B1: Homeobox protein SIX6, residues 134 to 184; numbered along this chain, O95475 (parent)
chain: CFKERTRHLLREWYLQDPYPNPSKKRELAQATGLTPTQVGNWFKNRRQRDR

Variants of: B1
Assay: abundance fitness (aPCA) (normalised: wild type 0, dead -1); higher = more abundant; growth selection in yeast, the domain comes from the species named
Settings: Homo sapiens

Variant	abundance fitness
CFKEGTRHLLREWYLQDPYPNPSKKRELAQATGLTPTQVGNWFKNRRQRDR	0.082 ± 0.094
CFKEETRHLLREWYLQDPYPNPSKKRELAQATGLTPTQVGNWFKNRRQRDR	0.068 ± 0.099
CFKENTRHLLREWYLQDPYPNPSKKRELAQATGLTPTQVGNWFKNRRQRDR	-0.075 ± 0.13
CFKEPTRHLLREWYLQDPYPNPSKKRELAQATGLTPTQVGNWFKNRRQRDR	-0.355 ± 0.19
CFKEATRHLLREWYLQDPYPNPSKKRELAQATGLTPTQVGNWFKNRRQRDR	-0.377 ± 0.12
CFKELTRHLLREWYLQDPYPNPSKKRELAQATGLTPTQVGNWFKNRRQRDR	-0.175 ± 0.07
CFKEMTRHLLREWYLQDPYPNPSKKRELAQATGLTPTQVGNWFKNRRQRDR	0.078 ± 0.17
CFKEWTRHLLREWYLQDPYPNPSKKRELAQATGLTPTQVGNWFKNRRQRDR	-0.558 ± 0.16
CFKEITRHLLREWYLQDPYPNPSKKRELAQATGLTPTQVGNWFKNRRQRDR	-0.172 ± 0.21
CFKETTRHLLREWYLQDPYPNPSKKRELAQATGLTPTQVGNWFKNRRQRDR	0.159 ± 0.12
CFKEYTRHLLREWYLQDPYPNPSKKRELAQATGLTPTQVGNWFKNRRQRDR	-0.221 ± 0.43
CFKEKTRHLLREWYLQDPYPNPSKKRELAQATGLTPTQVGNWFKNRRQRDR	-0.263 ± 0.21
CFKEQTRHLLREWYLQDPYPNPSKKRELAQATGLTPTQVGNWFKNRRQRDR	-0.74 ± 0.16
CFKEDTRHLLREWYLQDPYPNPSKKRELAQATGLTPTQVGNWFKNRRQRDR	0.116 ± 0.17
CFKEVTRHLLREWYLQDPYPNPSKKRELAQATGLTPTQVGNWFKNRRQRDR	-0.315 ± 0.15
CFKESTRHLLREWYLQDPYPNPSKKRELAQATGLTPTQVGNWFKNRRQRDR	0.191 ± 0.051
CFKERTLHLLREWYLQDPYPNPSKKRELAQATGLTPTQVGNWFKNRRQRDR	0.051 ± 0.051
CFKERTMHLLREWYLQDPYPNPSKKRELAQATGLTPTQVGNWFKNRRQRDR	0.073 ± 0.086
CFKERTAHLLREWYLQDPYPNPSKKRELAQATGLTPTQVGNWFKNRRQRDR	0.033 ± 0.053
CFKERTCHLLREWYLQDPYPNPSKKRELAQATGLTPTQVGNWFKNRRQRDR	-0.306 ± 0.092
CFKERTFHLLREWYLQDPYPNPSKKRELAQATGLTPTQVGNWFKNRRQRDR	-0.221 ± 0.099
CFKERTGHLLREWYLQDPYPNPSKKRELAQATGLTPTQVGNWFKNRRQRDR	-0.22 ± 0.057
CFKERTEHLLREWYLQDPYPNPSKKRELAQATGLTPTQVGNWFKNRRQRDR	0.236 ± 0.054
CFKERTDHLLREWYLQDPYPNPSKKRELAQATGLTPTQVGNWFKNRRQRDR	0.167 ± 0.097
CFKERTIHLLREWYLQDPYPNPSKKRELAQATGLTPTQVGNWFKNRRQRDR	0.073 ± 0.059
CFKERTKHLLREWYLQDPYPNPSKKRELAQATGLTPTQVGNWFKNRRQRDR	0.126 ± 0.05

Variant	abundance fitness
CFKERTNHLLREWYLQDPYPNPSKKRELAQATGLTPTQVGNWFKNRRQRDR	-0.138 ± 0.067
GFKERTRHLLREWYLQDPYPNPSKKRELAQATGLTPTQVGNWFKNRRQRDR	0 ± 0.27
SFKERTRHLLREWYLQDPYPNPSKKRELAQATGLTPTQVGNWFKNRRQRDR	0.116 ± 0.18
CRKERTRHLLREWYLQDPYPNPSKKRELAQATGLTPTQVGNWFKNRRQRDR	-0.407 ± 0.088
CTKERTRHLLREWYLQDPYPNPSKKRELAQATGLTPTQVGNWFKNRRQRDR	0.196 ± 0.081
CNKERTRHLLREWYLQDPYPNPSKKRELAQATGLTPTQVGNWFKNRRQRDR	0.333 ± 0.36
CDKERTRHLLREWYLQDPYPNPSKKRELAQATGLTPTQVGNWFKNRRQRDR	0.05 ± 0.091
CIKERTRHLLREWYLQDPYPNPSKKRELAQATGLTPTQVGNWFKNRRQRDR	0.179 ± 0.14
CAKERTRHLLREWYLQDPYPNPSKKRELAQATGLTPTQVGNWFKNRRQRDR	-0.111 ± 0.043
CCKERTRHLLREWYLQDPYPNPSKKRELAQATGLTPTQVGNWFKNRRQRDR	0.025 ± 0.067
CLKERTRHLLREWYLQDPYPNPSKKRELAQATGLTPTQVGNWFKNRRQRDR	-0.023 ± 0.069
CKKERTRHLLREWYLQDPYPNPSKKRELAQATGLTPTQVGNWFKNRRQRDR	0.247 ± 0.11
CQKERTRHLLREWYLQDPYPNPSKKRELAQATGLTPTQVGNWFKNRRQRDR	-0.182 ± 0.09
CMKERTRHLLREWYLQDPYPNPSKKRELAQATGLTPTQVGNWFKNRRQRDR	0.192 ± 0.093
CVKERTRHLLREWYLQDPYPNPSKKRELAQATGLTPTQVGNWFKNRRQRDR	-0.255 ± 0.063
CWKERTRHLLREWYLQDPYPNPSKKRELAQATGLTPTQVGNWFKNRRQRDR	-0.369 ± 0.046
CEKERTRHLLREWYLQDPYPNPSKKRELAQATGLTPTQVGNWFKNRRQRDR	0.102 ± 0.094
CPKERTRHLLREWYLQDPYPNPSKKRELAQATGLTPTQVGNWFKNRRQRDR	-0.383 ± 0.11
CSKERTRHLLREWYLQDPYPNPSKKRELAQATGLTPTQVGNWFKNRRQRDR	0.256 ± 0.042
CHKERTRHLLREWYLQDPYPNPSKKRELAQATGLTPTQVGNWFKNRRQRDR	-0.013 ± 0.11
CYKERTRHLLREWYLQDPYPNPSKKRELAQATGLTPTQVGNWFKNRRQRDR	-0.11 ± 0.14
CGKERTRHLLREWYLQDPYPNPSKKRELAQATGLTPTQVGNWFKNRRQRDR	-0.017 ± 0.051
CFVERTRHLLREWYLQDPYPNPSKKRELAQATGLTPTQVGNWFKNRRQRDR	-0.562 ± 0.098
CFDERTRHLLREWYLQDPYPNPSKKRELAQATGLTPTQVGNWFKNRRQRDR	0.122 ± 0.054
CFYERTRHLLREWYLQDPYPNPSKKRELAQATGLTPTQVGNWFKNRRQRDR	-0.672 ± 0.25
CFSERTRHLLREWYLQDPYPNPSKKRELAQATGLTPTQVGNWFKNRRQRDR	0.295 ± 0.09

Variant	abundance fitness
CFPERTRHLLREWYLQDPYPNPSKKRELAQATGLTPTQVGNWFKNRRQRDR	-0.1 ± 0.11
CFAERTRHLLREWYLQDPYPNPSKKRELAQATGLTPTQVGNWFKNRRQRDR	-0.19 ± 0.059
CFGERTRHLLREWYLQDPYPNPSKKRELAQATGLTPTQVGNWFKNRRQRDR	-0.358 ± 0.083
CFTERTRHLLREWYLQDPYPNPSKKRELAQATGLTPTQVGNWFKNRRQRDR	0.201 ± 0.063
CFRERTRHLLREWYLQDPYPNPSKKRELAQATGLTPTQVGNWFKNRRQRDR	-0.118 ± 0.067
CFNERTRHLLREWYLQDPYPNPSKKRELAQATGLTPTQVGNWFKNRRQRDR	-0.196 ± 0.21
CFMERTRHLLREWYLQDPYPNPSKKRELAQATGLTPTQVGNWFKNRRQRDR	-0.171 ± 0.067
CFWERTRHLLREWYLQDPYPNPSKKRELAQATGLTPTQVGNWFKNRRQRDR	-0.298 ± 0.081
CFEERTRHLLREWYLQDPYPNPSKKRELAQATGLTPTQVGNWFKNRRQRDR	-0.083 ± 0.11
CFQERTRHLLREWYLQDPYPNPSKKRELAQATGLTPTQVGNWFKNRRQRDR	-0.402 ± 0.13
CFIERTRHLLREWYLQDPYPNPSKKRELAQATGLTPTQVGNWFKNRRQRDR	-0.17 ± 0.21
CFCERTRHLLREWYLQDPYPNPSKKRELAQATGLTPTQVGNWFKNRRQRDR	-0.06 ± 0.086
CFLERTRHLLREWYLQDPYPNPSKKRELAQATGLTPTQVGNWFKNRRQRDR	-0.181 ± 0.094
CFFERTRHLLREWYLQDPYPNPSKKRELAQATGLTPTQVGNWFKNRRQRDR	-0.095 ± 0.097
CFKERHRHLLREWYLQDPYPNPSKKRELAQATGLTPTQVGNWFKNRRQRDR	-0.356 ± 0.16
CFKERVRHLLREWYLQDPYPNPSKKRELAQATGLTPTQVGNWFKNRRQRDR	0.173 ± 0.045
CFKERWRHLLREWYLQDPYPNPSKKRELAQATGLTPTQVGNWFKNRRQRDR	-0.182 ± 0.097
CFKERIRHLLREWYLQDPYPNPSKKRELAQATGLTPTQVGNWFKNRRQRDR	0.36 ± 0.071
CFKERKRHLLREWYLQDPYPNPSKKRELAQATGLTPTQVGNWFKNRRQRDR	-0.368 ± 0.084
CFKERQRHLLREWYLQDPYPNPSKKRELAQATGLTPTQVGNWFKNRRQRDR	-0.168 ± 0.058
CFKERLRHLLREWYLQDPYPNPSKKRELAQATGLTPTQVGNWFKNRRQRDR	-0.095 ± 0.064
CFKERDRHLLREWYLQDPYPNPSKKRELAQATGLTPTQVGNWFKNRRQRDR	-0.45 ± 0.18
CFKERERHLLREWYLQDPYPNPSKKRELAQATGLTPTQVGNWFKNRRQRDR	-0.619 ± 0.12
CFKERSRHLLREWYLQDPYPNPSKKRELAQATGLTPTQVGNWFKNRRQRDR	-0.174 ± 0.057
CFKERMRHLLREWYLQDPYPNPSKKRELAQATGLTPTQVGNWFKNRRQRDR	-0.042 ± 0.066
CFKERYRHLLREWYLQDPYPNPSKKRELAQATGLTPTQVGNWFKNRRQRDR	-0.45 ± 0.12

Variant	abundance fitness
CFKERFRHLLREWYLQDPYPNPSKKRELAQATGLTPTQVGNWFKNRRQRDR	-0.691 ± 0.16
CFKERNRHLLREWYLQDPYPNPSKKRELAQATGLTPTQVGNWFKNRRQRDR	-0.498 ± 0.26
CFKERARHLLREWYLQDPYPNPSKKRELAQATGLTPTQVGNWFKNRRQRDR	-0.036 ± 0.067
CFKERCRHLLREWYLQDPYPNPSKKRELAQATGLTPTQVGNWFKNRRQRDR	-0.76 ± 0.23
CFKERRRHLLREWYLQDPYPNPSKKRELAQATGLTPTQVGNWFKNRRQRDR	-0.3 ± 0.057
CFKERGRHLLREWYLQDPYPNPSKKRELAQATGLTPTQVGNWFKNRRQRDR	-0.24 ± 0.047
CFKYRTRHLLREWYLQDPYPNPSKKRELAQATGLTPTQVGNWFKNRRQRDR	-0.012 ± 0.17
CFKGRTRHLLREWYLQDPYPNPSKKRELAQATGLTPTQVGNWFKNRRQRDR	-0.448 ± 0.1
CFKCRTRHLLREWYLQDPYPNPSKKRELAQATGLTPTQVGNWFKNRRQRDR	-0.55 ± 0.24
CFKFRTRHLLREWYLQDPYPNPSKKRELAQATGLTPTQVGNWFKNRRQRDR	-0.56 ± 0.24
CFKKRTRHLLREWYLQDPYPNPSKKRELAQATGLTPTQVGNWFKNRRQRDR	-0.125 ± 0.14
CFKDRTRHLLREWYLQDPYPNPSKKRELAQATGLTPTQVGNWFKNRRQRDR	0.017 ± 0.075
CFKNRTRHLLREWYLQDPYPNPSKKRELAQATGLTPTQVGNWFKNRRQRDR	-0.03 ± 0.22
CFKLRTRHLLREWYLQDPYPNPSKKRELAQATGLTPTQVGNWFKNRRQRDR	-0.271 ± 0.081
CFKMRTRHLLREWYLQDPYPNPSKKRELAQATGLTPTQVGNWFKNRRQRDR	-0.131 ± 0.15
CFKIRTRHLLREWYLQDPYPNPSKKRELAQATGLTPTQVGNWFKNRRQRDR	-0.335 ± 0.17
CFKQRTRHLLREWYLQDPYPNPSKKRELAQATGLTPTQVGNWFKNRRQRDR	-0.277 ± 0.26
CFKVRTRHLLREWYLQDPYPNPSKKRELAQATGLTPTQVGNWFKNRRQRDR	-0.5 ± 0.095
CFKPRTRHLLREWYLQDPYPNPSKKRELAQATGLTPTQVGNWFKNRRQRDR	-0.741 ± 0.17
CFKTRTRHLLREWYLQDPYPNPSKKRELAQATGLTPTQVGNWFKNRRQRDR	-0.362 ± 0.068
CFKHRTRHLLREWYLQDPYPNPSKKRELAQATGLTPTQVGNWFKNRRQRDR	-0.587 ± 0.21
CFKSRTRHLLREWYLQDPYPNPSKKRELAQATGLTPTQVGNWFKNRRQRDR	-0.276 ± 0.068
CFKWRTRHLLREWYLQDPYPNPSKKRELAQATGLTPTQVGNWFKNRRQRDR	-0.354 ± 0.063
CFKRRTRHLLREWYLQDPYPNPSKKRELAQATGLTPTQVGNWFKNRRQRDR	-0.361 ± 0.079
